{
  "source": "the RNAGym collection of RNA variant scans (doi:10.7554/elife.90254)",
  "parents": {"B1": {"name": "LINE1-mini (parent)", "chain": "GGCAGAGCUCAACACAGCGUGGCAAAGUGGCUGUGGCUAGACUGCC"}},
  "data": [
    {"variants_of": "B1", "experiment": "self-cleavage, relative activity (ratio to wild type); higher = more cleavage; in vitro, sequencing; the parent is a self-cleaving ribozyme", "values": [
      {"variant": "GGCAGAUCUCAACACAGCGUGGCAAAGUGGCAGUGGCUAGACUGCC", "note": "[G7U U32A]", "self-cleavage": 0.08},
      {"variant": "GGCAGAUCUCAACACAGCGUGGCAAAGUGGCGGUGGCUAGACUGCC", "note": "[G7U U32G]", "self-cleavage": 0.11},
      {"variant": "GGCAGAUCUCAAUACAGCGUGGCAAAGUGGCUGUGGCUAGACUGCC", "note": "[G7U C13U]", "self-cleavage": 0.15},
      {"variant": "GGCAGAUCUCAAAACAGCGUGGCAAAGUGGCUGUGGCUAGACUGCC", "note": "[G7U C13A]", "self-cleavage": 0.14},
      {"variant": "GGCAGAUCUCAAGACAGCGUGGCAAAGUGGCUGUGGCUAGACUGCC", "note": "[G7U C13G]", "self-cleavage": 0.08},
      {"variant": "GGCAGAUGUCAACACAGCGUGGCAAAGUGGCUGUGGCUAGACUGCC", "note": "[G7U C8G]", "self-cleavage": 0.32},
      {"variant": "GGCAGAUUUCAACACAGCGUGGCAAAGUGGCUGUGGCUAGACUGCC", "note": "[G7U C8U]", "self-cleavage": 0.34},
      {"variant": "GGCAGAUAUCAACACAGCGUGGCAAAGUGGCUGUGGCUAGACUGCC", "note": "[G7U C8A]", "self-cleavage": 0.3},
      {"variant": "GGCAGAUCUCAACACAGCGUGGCAAAGCGGCUGUGGCUAGACUGCC", "note": "[G7U U28C]", "self-cleavage": 0.05},
      {"variant": "GGCAGAUCUCAACACAGCGUGGCAAAGAGGCUGUGGCUAGACUGCC", "note": "[G7U U28A]", "self-cleavage": 0.03},
      {"variant": "GGCAGAUCUCAACACAGCGUGGCAAAGGGGCUGUGGCUAGACUGCC", "note": "[G7U U28G]", "self-cleavage": 0.07},
      {"variant": "GGCAGAUCUCAACACAGCGUGGCAAAGUUGCUGUGGCUAGACUGCC", "note": "[G7U G29U]", "self-cleavage": 0.15},
      {"variant": "GGCAGAUCUCAACACAGCGUGGCAAAGUCGCUGUGGCUAGACUGCC", "note": "[G7U G29C]", "self-cleavage": 0.03},
      {"variant": "GGCAGAUCUCAACACAGCGUGGCAAAGUAGCUGUGGCUAGACUGCC", "note": "[G7U G29A]", "self-cleavage": 0.06},
      {"variant": "GGCAGAUCUCAACACAGCGUGGCAAAGUGGCUGUGGCUAGACUGCG", "note": "[G7U C46G]", "self-cleavage": 0.09},
      {"variant": "GGCAGAUCUCAACACAGCGUGGCAAAGUGGCUGUGGCUAGACUGCU", "note": "[G7U C46U]", "self-cleavage": 0.03},
      {"variant": "GGCAGAUCUCAACACAGCGUGGCAAAGUGGCUGUGGCUAGACUGCA", "note": "[G7U C46A]", "self-cleavage": 0.19},
      {"variant": "GGCAGAUCUCAACACAGCGUGGCAAACUGGCUGUGGCUAGACUGCC", "note": "[G7U G27C]", "self-cleavage": 0.1},
      {"variant": "GGCAGAUCUCAACACAGCGUGGCAAAUUGGCUGUGGCUAGACUGCC", "note": "[G7U G27U]", "self-cleavage": 0.08},
      {"variant": "GGCAGAUCUCAACACAGCGUGGCAAAAUGGCUGUGGCUAGACUGCC", "note": "[G7U G27A]", "self-cleavage": 0.07},
      {"variant": "GGCAGAUCUCAACACAGCGUGGCAAAGUGGCUGUGGGUAGACUGCC", "note": "[G7U C37G]", "self-cleavage": 0.01},
      {"variant": "GGCAGAUCUCAACACAGCGUGGCAAAGUGGCUGUGGAUAGACUGCC", "note": "[G7U C37A]", "self-cleavage": 0.05},
      {"variant": "GGCAGAUCUCAACACAGCGUGGCAAAGUGGCUGUGGUUAGACUGCC", "note": "[G7U C37U]", "self-cleavage": 0.03},
      {"variant": "GGCAGAGAUCCACACAGCGUGGCAAAGUGGCUGUGGCUAGACUGCC", "note": "[C8A A11C]", "self-cleavage": 0.05},
      {"variant": "GGCAGAGAUCGACACAGCGUGGCAAAGUGGCUGUGGCUAGACUGCC", "note": "[C8A A11G]", "self-cleavage": 0.04},
      {"variant": "GGCAGAGAUCUACACAGCGUGGCAAAGUGGCUGUGGCUAGACUGCC", "note": "[C8A A11U]", "self-cleavage": 0.03},
      {"variant": "GGCAGAUCUCAACACAGCGUGGCAAAGUGGCUGUGGCAAGACUGCC", "note": "[G7U U38A]", "self-cleavage": 0.04},
      {"variant": "GGCAGAUCUCAACACAGCGUGGCAAAGUGGCUGUGGCCAGACUGCC", "note": "[G7U U38C]", "self-cleavage": 0.05},
      {"variant": "GGCAGAUCUCAACACAGCGUGGCAAAGUGGCUGUGGCGAGACUGCC", "note": "[G7U U38G]", "self-cleavage": 0.03},
      {"variant": "GGCAGAGAUCAACACGGCGUGGCAAAGUGGCUGUGGCUAGACUGCC", "note": "[C8A A16G]", "self-cleavage": 0.22},
      {"variant": "GGCAGAGAUCAACACUGCGUGGCAAAGUGGCUGUGGCUAGACUGCC", "note": "[C8A A16U]", "self-cleavage": 0.23},
      {"variant": "GGCAGAGAUCAACACCGCGUGGCAAAGUGGCUGUGGCUAGACUGCC", "note": "[C8A A16C]", "self-cleavage": 0.25},
      {"variant": "GGCAGAUCUCAACACAGCGUGGCAAAGUGGCUGUGGCUAGACCGCC", "note": "[G7U U43C]", "self-cleavage": 0.18},
      {"variant": "GGCAGAUCUCAACACAGCGUGGCAAAGUGGCUGUGGCUAGACGGCC", "note": "[G7U U43G]", "self-cleavage": 0.32},
      {"variant": "GGCAGAUCUCAACACAGCGUGGCAAAGUGGCUGUGGCUAGACAGCC", "note": "[G7U U43A]", "self-cleavage": 0.11},
      {"variant": "GGCAGAUCUCAACACAGCGUGGCAAAGUGGCUGUGGCUAGUCUGCC", "note": "[G7U A41U]", "self-cleavage": 0.21},
      {"variant": "GGCAGAUCUCAACACAGCGUGGCAAAGUGGCUGUGGCUAGCCUGCC", "note": "[G7U A41C]", "self-cleavage": 0.24},
      {"variant": "GGCAGAUCUCAACACAGCGUGGCAAAGUGGCUGUGGCUAGGCUGCC", "note": "[G7U A41G]", "self-cleavage": 0.09},
      {"variant": "GGCAGAUCUCAACACAUCGUGGCAAAGUGGCUGUGGCUAGACUGCC", "note": "[G7U G17U]", "self-cleavage": 0.12},
      {"variant": "GGCAGAUCUCAACACACCGUGGCAAAGUGGCUGUGGCUAGACUGCC", "note": "[G7U G17C]", "self-cleavage": 0.07},
      {"variant": "GGCAGAUCUCAACACAACGUGGCAAAGUGGCUGUGGCUAGACUGCC", "note": "[G7U G17A]", "self-cleavage": 0.08},
      {"variant": "GGCAGAUCUCAACACAGCGUGUCAAAGUGGCUGUGGCUAGACUGCC", "note": "[G7U G22U]", "self-cleavage": 0.14},
      {"variant": "GGCAGAUCUCAACACAGCGUGCCAAAGUGGCUGUGGCUAGACUGCC", "note": "[G7U G22C]", "self-cleavage": 0.04},
      {"variant": "GGCAGAUCUCAACACAGCGUGACAAAGUGGCUGUGGCUAGACUGCC", "note": "[G7U G22A]", "self-cleavage": 0.08},
      {"variant": "GGCAGAUCUCAACACAGCGUGGCAAAGUGGCUGUGGCUACACUGCC", "note": "[G7U G40C]", "self-cleavage": 0.12},
      {"variant": "GGCAGAUCUCAACACAGCGUGGCAAAGUGGCUGUGGCUAAACUGCC", "note": "[G7U G40A]", "self-cleavage": 0.16},
      {"variant": "GGCAGAUCUCAACACAGCGUGGCAAAGUGGCUGUGGCUAUACUGCC", "note": "[G7U G40U]", "self-cleavage": 0.18},
      {"variant": "GGCAGAUCUCAACAAAGCGUGGCAAAGUGGCUGUGGCUAGACUGCC", "note": "[G7U C15A]", "self-cleavage": 0.16},
      {"variant": "GGCAGAUCUCAACAGAGCGUGGCAAAGUGGCUGUGGCUAGACUGCC", "note": "[G7U C15G]", "self-cleavage": 0.09},
      {"variant": "GGCAGAUCUCAACAUAGCGUGGCAAAGUGGCUGUGGCUAGACUGCC", "note": "[G7U C15U]", "self-cleavage": 0.1},
      {"variant": "GGCAGAUCUCAACACAGCGUGGCAAAGUGGGUGUGGCUAGACUGCC", "note": "[G7U C31G]", "self-cleavage": 0.06},
      {"variant": "GGCAGAUCUCAACACAGCGUGGCAAAGUGGAUGUGGCUAGACUGCC", "note": "[G7U C31A]", "self-cleavage": 0.09},
      {"variant": "GGCAGAUCUCAACACAGCGUGGCAAAGUGGUUGUGGCUAGACUGCC", "note": "[G7U C31U]", "self-cleavage": 0.1},
      {"variant": "GGCAGAUCUCAACACAGCGUGGCAAAGUGGCUGUGUCUAGACUGCC", "note": "[G7U G36U]", "self-cleavage": 0.05},
      {"variant": "GGCAGAUCUCAACACAGCGUGGCAAAGUGGCUGUGACUAGACUGCC", "note": "[G7U G36A]", "self-cleavage": 0.11},
      {"variant": "GGCAGAUCUCAACACAGCGUGGCAAAGUGGCUGUGCCUAGACUGCC", "note": "[G7U G36C]", "self-cleavage": 0.09}
    ]}
  ]
}
